Laboratory results published in article PMC9482650, “Quantitative fragmentomics allow affinity mapping of interactomes” (Nature Communications, 2022).

T1: SHANK1, Q9Y566
T1 sequence (Q9Y566 658-767, limits assumed, looked up): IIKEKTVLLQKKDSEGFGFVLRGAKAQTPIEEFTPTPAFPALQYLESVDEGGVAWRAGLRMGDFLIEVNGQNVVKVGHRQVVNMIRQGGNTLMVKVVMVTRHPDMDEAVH

T2: MPP6, Q9NZW5
T2 sequence (Q9NZW5 125-219, limits assumed, looked up): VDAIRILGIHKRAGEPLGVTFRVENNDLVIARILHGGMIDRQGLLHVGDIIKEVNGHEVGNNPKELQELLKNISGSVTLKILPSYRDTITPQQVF

T3: RADIL, Q96JH8
T3 sequence (Q96JH8 971-1071, limits assumed, looked up): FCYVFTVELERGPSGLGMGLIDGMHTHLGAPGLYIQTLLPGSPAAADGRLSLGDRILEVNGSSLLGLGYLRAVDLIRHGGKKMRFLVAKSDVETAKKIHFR

T4: SIPA1L2, Q9P2F8
T4 sequence (Q9P2F8 945-1036, limits assumed, looked up): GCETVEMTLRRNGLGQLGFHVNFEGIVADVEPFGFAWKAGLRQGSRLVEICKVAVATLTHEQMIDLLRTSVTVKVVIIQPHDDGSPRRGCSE

T5: DLG3_1, Q92796
T5 sequence (Q92796 125-227, limits assumed, looked up): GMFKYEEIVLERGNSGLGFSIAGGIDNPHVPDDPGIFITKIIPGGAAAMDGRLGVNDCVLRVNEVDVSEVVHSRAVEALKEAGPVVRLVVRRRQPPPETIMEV

T6: GRIP1_5, Q9Y3R0
T6 sequence (Q9Y3R0 568-668, limits assumed, looked up): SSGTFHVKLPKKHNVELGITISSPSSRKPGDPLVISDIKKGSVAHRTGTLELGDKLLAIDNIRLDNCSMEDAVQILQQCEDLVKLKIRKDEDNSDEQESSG

T7: DLG3_2, Q92796
T7 sequence (Q92796 221-321, limits assumed, looked up): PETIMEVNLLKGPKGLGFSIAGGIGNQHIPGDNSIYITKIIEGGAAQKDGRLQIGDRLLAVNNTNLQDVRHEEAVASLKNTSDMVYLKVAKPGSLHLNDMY

T8: LIN7A, O14910
T8 sequence (O14910 103-200, limits assumed, looked up): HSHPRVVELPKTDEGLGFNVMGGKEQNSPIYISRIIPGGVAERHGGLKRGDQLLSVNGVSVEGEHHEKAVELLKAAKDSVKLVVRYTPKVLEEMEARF

T9: ARHGEF11, O15085
T9 sequence (O15085 42-136, limits assumed, looked up): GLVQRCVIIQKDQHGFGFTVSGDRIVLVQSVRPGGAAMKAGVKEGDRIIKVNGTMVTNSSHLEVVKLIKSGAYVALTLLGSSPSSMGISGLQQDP


target: DLG4_3, P78352; assay: holdup assay; parameters: key: below the threshold = too weak to quantify, mostly under pKd 3.1 to 4; details: plain residues with an end cap or a label only (N-terminal biotin on a linker: ado-ado)
Sequence (P78352 306-403): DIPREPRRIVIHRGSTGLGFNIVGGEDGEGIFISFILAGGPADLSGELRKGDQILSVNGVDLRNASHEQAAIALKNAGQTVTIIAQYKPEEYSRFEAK

| Binder | pKd |
| --- | --- |
| QGPVETESVV [SLC45A4, Q5BKX6] | below the threshold |
| KKAPTNEFYA [SDC4, P31431] | below the threshold |

target: FRMPD3, Q5JV73; assay: holdup assay; parameters: key: below the threshold = too weak to quantify, mostly under pKd 3.1 to 4; details: plain residues with an end cap or a label only (N-terminal biotin on a linker: ado-ado)
Sequence (Q5JV73 12-100): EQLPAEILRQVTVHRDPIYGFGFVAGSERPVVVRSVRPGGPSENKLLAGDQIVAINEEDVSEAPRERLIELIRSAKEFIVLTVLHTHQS

| Binder | pKd |
| --- | --- |
| QGPVETESVV [SLC45A4, Q5BKX6] | 3.5 |
| KKAPTNEFYA [SDC4, P31431] | 3.84 |

target: GORASP2, Q9H8Y8; assay: holdup assay; parameters: key: below the threshold = too weak to quantify, mostly under pKd 3.1 to 4; details: plain residues with an end cap or a label only (N-terminal biotin on a linker: ado-ado)

| Binder | pKd |
| --- | --- |
| QGPVETESVV [SLC45A4, Q5BKX6] | 3.53 |
| KKAPTNEFYA [SDC4, P31431] | below the threshold |

target: MAGI1_2, Q96QZ7; assay: holdup assay; parameters: key: below the threshold = too weak to quantify, mostly under pKd 3.1 to 4; details: plain residues with an end cap or a label only (N-terminal biotin on a linker: ado-ado)
Sequence (Q96QZ7 456-580): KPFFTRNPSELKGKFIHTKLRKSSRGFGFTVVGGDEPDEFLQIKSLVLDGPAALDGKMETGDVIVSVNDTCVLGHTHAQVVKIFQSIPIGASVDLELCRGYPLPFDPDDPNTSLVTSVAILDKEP

| Binder | pKd |
| --- | --- |
| QGPVETESVV [SLC45A4, Q5BKX6] | below the threshold |
| KKAPTNEFYA [SDC4, P31431] | below the threshold |

target: GRASP, Q7Z6J2; assay: holdup assay; parameters: key: below the threshold = too weak to quantify, mostly under pKd 3.1 to 4; details: plain residues with an end cap or a label only (N-terminal biotin on a linker: ado-ado)
Sequence (Q7Z6J2 96-193): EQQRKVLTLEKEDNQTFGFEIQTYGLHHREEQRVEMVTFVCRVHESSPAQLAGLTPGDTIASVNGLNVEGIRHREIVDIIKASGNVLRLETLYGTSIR

| Binder | pKd |
| --- | --- |
| QGPVETESVV [SLC45A4, Q5BKX6] | 3.48 |
| KKAPTNEFYA [SDC4, P31431] | below the threshold |

target: T1, SHANK1, Q9Y566; assay: holdup assay; parameters: key: below the threshold = too weak to quantify, mostly under pKd 3.1 to 4; details: plain residues with an end cap or a label only (N-terminal biotin on a linker: ado-ado)

| Binder | pKd |
| --- | --- |
| QGPVETESVV [SLC45A4, Q5BKX6] | below the threshold |
| KKAPTNEFYA [SDC4, P31431] | below the threshold |

target: MAGI2_2, Q86UL8; assay: holdup assay; parameters: key: below the threshold = too weak to quantify, mostly under pKd 3.1 to 4; details: plain residues with an end cap or a label only (N-terminal biotin on a linker: ado-ado)
Sequence (Q86UL8 410-522): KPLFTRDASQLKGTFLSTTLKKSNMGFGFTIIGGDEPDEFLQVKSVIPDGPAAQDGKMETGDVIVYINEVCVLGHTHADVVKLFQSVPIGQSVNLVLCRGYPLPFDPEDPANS

| Binder | pKd |
| --- | --- |
| QGPVETESVV [SLC45A4, Q5BKX6] | 3.78 |
| KKAPTNEFYA [SDC4, P31431] | below the threshold |

target: T2, MPP6, Q9NZW5; assay: holdup assay; parameters: key: below the threshold = too weak to quantify, mostly under pKd 3.1 to 4; details: plain residues with an end cap or a label only (N-terminal biotin on a linker: ado-ado)

| Binder | pKd |
| --- | --- |
| QGPVETESVV [SLC45A4, Q5BKX6] | below the threshold |
| KKAPTNEFYA [SDC4, P31431] | 3.91 |

target: T3, RADIL, Q96JH8; assay: holdup assay; parameters: key: below the threshold = too weak to quantify, mostly under pKd 3.1 to 4; details: plain residues with an end cap or a label only (N-terminal biotin on a linker: ado-ado)

| Binder | pKd |
| --- | --- |
| QGPVETESVV [SLC45A4, Q5BKX6] | 4.05 |
| KKAPTNEFYA [SDC4, P31431] | below the threshold |

target: SCRIB_2, Q14160; assay: holdup assay; parameters: key: below the threshold = too weak to quantify, mostly under pKd 3.1 to 4; details: plain residues with an end cap or a label only (N-terminal biotin on a linker: ado-ado)
Sequence (Q14160 857-960): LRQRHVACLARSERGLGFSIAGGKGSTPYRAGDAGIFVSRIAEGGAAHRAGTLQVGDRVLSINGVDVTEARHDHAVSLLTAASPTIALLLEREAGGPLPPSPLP

| Binder | pKd |
| --- | --- |
| QGPVETESVV [SLC45A4, Q5BKX6] | 3.67 |
| KKAPTNEFYA [SDC4, P31431] | below the threshold |

target: IL16_1, Q14005; assay: holdup assay; parameters: key: below the threshold = too weak to quantify, mostly under pKd 3.1 to 4; details: plain residues with an end cap or a label only (N-terminal biotin on a linker: ado-ado)
Sequence (Q14005 210-306): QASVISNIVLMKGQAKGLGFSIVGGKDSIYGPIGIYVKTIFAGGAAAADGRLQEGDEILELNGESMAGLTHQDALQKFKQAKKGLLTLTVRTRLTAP

| Binder | pKd |
| --- | --- |
| QGPVETESVV [SLC45A4, Q5BKX6] | 4.95 |
| KKAPTNEFYA [SDC4, P31431] | below the threshold |

target: GOPC, Q9HD26; assay: holdup assay; parameters: key: below the threshold = too weak to quantify, mostly under pKd 3.1 to 4; details: plain residues with an end cap or a label only (N-terminal biotin on a linker: ado-ado)

| Binder | pKd |
| --- | --- |
| QGPVETESVV [SLC45A4, Q5BKX6] | 3.54 |
| KKAPTNEFYA [SDC4, P31431] | below the threshold |

target: SCRIB_3, Q14160; assay: holdup assay; parameters: key: below the threshold = too weak to quantify, mostly under pKd 3.1 to 4; details: plain residues with an end cap or a label only (N-terminal biotin on a linker: ado-ado)
Sequence (Q14160 999-1103): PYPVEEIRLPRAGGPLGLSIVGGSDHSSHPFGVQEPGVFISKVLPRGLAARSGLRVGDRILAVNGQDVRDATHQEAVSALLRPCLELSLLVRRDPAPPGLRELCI

| Binder | pKd |
| --- | --- |
| QGPVETESVV [SLC45A4, Q5BKX6] | 3.9 |
| KKAPTNEFYA [SDC4, P31431] | below the threshold |

target: T4, SIPA1L2, Q9P2F8; assay: holdup assay; parameters: key: below the threshold = too weak to quantify, mostly under pKd 3.1 to 4; details: plain residues with an end cap or a label only (N-terminal biotin on a linker: ado-ado)

| Binder | pKd |
| --- | --- |
| QGPVETESVV [SLC45A4, Q5BKX6] | below the threshold |
| KKAPTNEFYA [SDC4, P31431] | below the threshold |

target: AHNAK1, Q09666; assay: holdup assay; parameters: key: below the threshold = too weak to quantify, mostly under pKd 3.1 to 4; details: plain residues with an end cap or a label only (N-terminal biotin on a linker: ado-ado)
Sequence (Q09666 4-100): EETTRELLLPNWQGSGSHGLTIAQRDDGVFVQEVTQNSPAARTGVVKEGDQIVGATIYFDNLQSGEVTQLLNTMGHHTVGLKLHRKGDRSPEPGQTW

| Binder | pKd |
| --- | --- |
| QGPVETESVV [SLC45A4, Q5BKX6] | below the threshold |
| KKAPTNEFYA [SDC4, P31431] | below the threshold |

target: MAGI3_2, Q5TCQ9; assay: holdup assay; parameters: key: below the threshold = too weak to quantify, mostly under pKd 3.1 to 4; details: plain residues with an end cap or a label only (N-terminal biotin on a linker: ado-ado)
Sequence (Q5TCQ9 398-503): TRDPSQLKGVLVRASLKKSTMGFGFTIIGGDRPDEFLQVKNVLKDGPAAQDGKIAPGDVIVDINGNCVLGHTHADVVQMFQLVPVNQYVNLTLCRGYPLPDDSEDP

| Binder | pKd |
| --- | --- |
| QGPVETESVV [SLC45A4, Q5BKX6] | 4.47 |
| KKAPTNEFYA [SDC4, P31431] | below the threshold |

target: TJP2_1, Q9UDY2; assay: holdup assay; parameters: key: below the threshold = too weak to quantify, mostly under pKd 3.1 to 4; details: plain residues with an end cap or a label only (N-terminal biotin on a linker: ado-ado)
Sequence (Q9UDY2 24-128): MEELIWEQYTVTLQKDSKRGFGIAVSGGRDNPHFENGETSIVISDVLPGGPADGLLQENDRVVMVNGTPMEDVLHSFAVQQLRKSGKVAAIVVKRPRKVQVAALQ

| Binder | pKd |
| --- | --- |
| QGPVETESVV [SLC45A4, Q5BKX6] | below the threshold |
| KKAPTNEFYA [SDC4, P31431] | below the threshold |

target: T5, DLG3_1, Q92796; assay: holdup assay; parameters: key: below the threshold = too weak to quantify, mostly under pKd 3.1 to 4; details: plain residues with an end cap or a label only (N-terminal biotin on a linker: ado-ado)

| Binder | pKd |
| --- | --- |
| QGPVETESVV [SLC45A4, Q5BKX6] | 3.88 |
| KKAPTNEFYA [SDC4, P31431] | below the threshold |

target: LDB3, O75112; assay: holdup assay; parameters: key: below the threshold = too weak to quantify, mostly under pKd 3.1 to 4; details: plain residues with an end cap or a label only (N-terminal biotin on a linker: ado-ado)
Sequence (O75112 1-94): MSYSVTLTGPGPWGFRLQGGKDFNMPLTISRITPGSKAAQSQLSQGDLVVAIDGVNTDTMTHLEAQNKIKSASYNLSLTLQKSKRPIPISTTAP

| Binder | pKd |
| --- | --- |
| QGPVETESVV [SLC45A4, Q5BKX6] | below the threshold |
| KKAPTNEFYA [SDC4, P31431] | below the threshold |

target: DLG1_3, Q12959; assay: holdup assay; parameters: key: below the threshold = too weak to quantify, mostly under pKd 3.1 to 4; details: plain residues with an end cap or a label only (N-terminal biotin on a linker: ado-ado)

| Binder | pKd |
| --- | --- |
| QGPVETESVV [SLC45A4, Q5BKX6] | below the threshold |
| KKAPTNEFYA [SDC4, P31431] | below the threshold |

target: PDLIM1, O00151; assay: holdup assay; parameters: key: below the threshold = too weak to quantify, mostly under pKd 3.1 to 4; details: plain residues with an end cap or a label only (N-terminal biotin on a linker: ado-ado)
Sequence (O00151 1-87): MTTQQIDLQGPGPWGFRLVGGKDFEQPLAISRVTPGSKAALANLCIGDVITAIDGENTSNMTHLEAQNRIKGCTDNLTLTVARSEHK

| Binder | pKd |
| --- | --- |
| QGPVETESVV [SLC45A4, Q5BKX6] | below the threshold |
| KKAPTNEFYA [SDC4, P31431] | below the threshold |

target: DLG1_1, Q12959; assay: holdup assay; parameters: key: below the threshold = too weak to quantify, mostly under pKd 3.1 to 4; details: plain residues with an end cap or a label only (N-terminal biotin on a linker: ado-ado)

| Binder | pKd |
| --- | --- |
| QGPVETESVV [SLC45A4, Q5BKX6] | 4.19 |
| KKAPTNEFYA [SDC4, P31431] | below the threshold |

target: T6, GRIP1_5, Q9Y3R0; assay: holdup assay; parameters: key: below the threshold = too weak to quantify, mostly under pKd 3.1 to 4; details: plain residues with an end cap or a label only (N-terminal biotin on a linker: ado-ado)

| Binder | pKd |
| --- | --- |
| QGPVETESVV [SLC45A4, Q5BKX6] | below the threshold |
| KKAPTNEFYA [SDC4, P31431] | below the threshold |

target: T7, DLG3_2, Q92796; assay: holdup assay; parameters: key: below the threshold = too weak to quantify, mostly under pKd 3.1 to 4; details: plain residues with an end cap or a label only (N-terminal biotin on a linker: ado-ado)

| Binder | pKd |
| --- | --- |
| QGPVETESVV [SLC45A4, Q5BKX6] | 4.47 |
| KKAPTNEFYA [SDC4, P31431] | 4.14 |

target: T8, LIN7A, O14910; assay: holdup assay; parameters: key: below the threshold = too weak to quantify, mostly under pKd 3.1 to 4; details: plain residues with an end cap or a label only (N-terminal biotin on a linker: ado-ado)

| Binder | pKd |
| --- | --- |
| QGPVETESVV [SLC45A4, Q5BKX6] | below the threshold |
| KKAPTNEFYA [SDC4, P31431] | below the threshold |

target: TJP1_2, Q07157; assay: holdup assay; parameters: key: below the threshold = too weak to quantify, mostly under pKd 3.1 to 4; details: plain residues with an end cap or a label only (N-terminal biotin on a linker: ado-ado)
Sequence (Q07157 181-274): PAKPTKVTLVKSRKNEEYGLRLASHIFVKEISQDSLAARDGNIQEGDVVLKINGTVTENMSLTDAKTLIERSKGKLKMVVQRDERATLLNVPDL

| Binder | pKd |
| --- | --- |
| QGPVETESVV [SLC45A4, Q5BKX6] | 3.54 |
| KKAPTNEFYA [SDC4, P31431] | below the threshold |

target: T9, ARHGEF11, O15085; assay: holdup assay; parameters: key: below the threshold = too weak to quantify, mostly under pKd 3.1 to 4; details: plain residues with an end cap or a label only (N-terminal biotin on a linker: ado-ado)

| Binder | pKd |
| --- | --- |
| QGPVETESVV [SLC45A4, Q5BKX6] | 3.99 |
| KKAPTNEFYA [SDC4, P31431] | below the threshold |

target: DLG4_2, P78352; assay: holdup assay; parameters: key: below the threshold = too weak to quantify, mostly under pKd 3.1 to 4; details: plain residues with an end cap or a label only (N-terminal biotin on a linker: ado-ado)
Sequence (P78352 155-259): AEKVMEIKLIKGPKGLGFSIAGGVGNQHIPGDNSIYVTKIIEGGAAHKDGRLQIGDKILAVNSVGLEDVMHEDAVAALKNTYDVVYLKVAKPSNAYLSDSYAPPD

| Binder | pKd |
| --- | --- |
| QGPVETESVV [SLC45A4, Q5BKX6] | 4.59 |
| KKAPTNEFYA [SDC4, P31431] | below the threshold |
